Our source for the Kd, koff and kon values is publication PMC9186069, “Borrelia miyamotoi FbpA and FbpB Are Immunomodulatory Outer Surface Lipoproteins With Distinct Structures and Functions” (Frontiers in Immunology, 2022).

Common to all, as to conditions: both partners purified
One assay addresses T1, C1r-CCP2-SP (human).
T1 construct: source: recombinant (pT7HMT-C1r-CCP2-SP), purified by previously published protocols with a final gel filtration step
Kind of assay: SPR; FbpA-C, FbpB-C or FbpA DA-C immobilised by amine coupling; C1r-CCP2-SP injected, twofold dilution series 0-100 nM, multi-cycle; Biacore T200, 25°C, 30 μL/min; kinetic fits.

The target in another assay is active C1r (human, UniProt P00736, activated two-chain form, cleaved between 463 and 464 (cleavage limits from UniProt chain features), heavy and light chains disulfide-linked; plasma-purified glycoprotein; native C1r forms a Ca-depend). The assay can be described thus: SPR; FbpA-C or FbpB-C immobilised by amine coupling; full-length C1r zymogen or active C1r injected, fivefold dilution series 0-100 nM, single cycle, final dissociation 1 hour; Biacore T200, 25°C; kinetic fits.

The next assay concerns the target T2, C1r zymogen (human, UniProt P00736 18-705).
T2 construct: also called zymogen form of full-length purified C1r; zymogen C1r; source: bought: Complement Technology, Inc. (purified)
T2 sequence: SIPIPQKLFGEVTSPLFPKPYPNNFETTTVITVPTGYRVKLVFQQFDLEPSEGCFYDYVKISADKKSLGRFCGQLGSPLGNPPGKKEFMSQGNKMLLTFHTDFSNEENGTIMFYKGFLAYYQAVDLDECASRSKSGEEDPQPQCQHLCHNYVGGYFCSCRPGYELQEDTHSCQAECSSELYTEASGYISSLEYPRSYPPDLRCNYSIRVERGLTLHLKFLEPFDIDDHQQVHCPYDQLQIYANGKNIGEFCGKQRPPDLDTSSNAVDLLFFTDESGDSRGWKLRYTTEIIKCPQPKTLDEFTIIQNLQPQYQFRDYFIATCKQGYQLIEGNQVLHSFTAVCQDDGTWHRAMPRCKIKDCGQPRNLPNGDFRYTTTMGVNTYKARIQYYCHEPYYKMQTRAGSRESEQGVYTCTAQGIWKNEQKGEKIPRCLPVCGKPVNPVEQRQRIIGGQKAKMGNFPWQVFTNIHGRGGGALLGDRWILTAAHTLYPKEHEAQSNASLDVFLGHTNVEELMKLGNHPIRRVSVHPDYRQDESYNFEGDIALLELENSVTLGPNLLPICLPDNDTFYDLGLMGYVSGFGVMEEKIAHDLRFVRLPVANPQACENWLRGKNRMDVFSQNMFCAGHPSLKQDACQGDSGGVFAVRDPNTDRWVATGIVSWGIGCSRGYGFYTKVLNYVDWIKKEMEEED
The assay is described as above.

T1 sequence (A0A0U2RP97 entry or part of it): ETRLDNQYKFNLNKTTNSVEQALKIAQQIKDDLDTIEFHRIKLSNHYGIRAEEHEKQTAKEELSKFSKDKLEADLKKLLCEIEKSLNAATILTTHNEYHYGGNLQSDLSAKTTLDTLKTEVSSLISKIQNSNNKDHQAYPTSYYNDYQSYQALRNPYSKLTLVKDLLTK

B1: FbpB-C (domain or fragment)
chain: DNQYKFKLKNITDSVEQALKIAKQIKDDLDIIEFHRIKLSNHYGIRAEEHEKQTAREELSKFSKDKLEADLKKLLSEIEKSLNAATILITYNDYGGNLQSDLSAKTTLEALKTEVSSLITKIQDFNNKDHQAYPTSYYNDYQTYQALRNPYSKLTLVKDLLTRTGIVAR
On to B1, for which, in the assay with C1r-CCP2-SP, the affinity, expressed as Kd, was 1.4 nM; the koff came to 0.00055 s⁻¹; the kon was 390000 M⁻¹ s⁻¹. Besides, in the assay with active C1r, the Kd was determined as 1.1 nM, the koff was found to be 7.6e-05 s⁻¹ and the on-rate (kon) was found to be 68000 M⁻¹ s⁻¹.

B2: FbpA-C (domain or fragment)
chain: GSTGSDNRYKSYLEGVRYNVSAAIGSIDKIYNNYKLFEEQRTKMYSTRLDTVTKDQAKKEAEKFTKEELEKDLKELLNYIQVSAKTATNFVYQKEQYAKQRLDKLETEVKTLISEVQGQSHPYEAYKAIVRSKFLQMKDSLEVVKGVIDRDGPWY
notes: Made from pT7HMT-FbpA-C; also called FbpA(222-371); C-terminal truncation construct of B. miyamotoi FbpA; source: E. coli BL21 (DE3), purified (Ni column, TEV, gel filtration)
For the molecule B2, in the assay with active C1r, the Kd was 0.39 nM, the koff stood at 2.7e-05 s⁻¹ and the kon was determined as 68000 M⁻¹ s⁻¹. In the assay with C1r zymogen, binding was put at a Kd of 0.85 nM, the dissociation rate constant (koff) was 1.9e-05 s⁻¹ and the kon was found to be 22000 M⁻¹ s⁻¹.
